For orientation: Kd means the equilibrium constant for the complex coming apart.

The values below come from publication PMC7788105 (iScience, 2020).

In this experiment the target is T1, human PD-1 (programmed cell death receptor 1) (human, UniProt Q15116 25-170, 15N-labeled in the AIDA-NMR assay; covalently labeled with a fluorophore in the MST assay).
T1 construct: Programmed cell death receptor 1 (PD-1, CD279), human; In the cell-based ICB assays hPD-1 stands on Jurkat effector cells; also called hPD-1; CD279
Nature of the experiment: MST; hPD-1 covalently labeled with a fluorophore, incubated with increasing concentrations of unlabeled hPD-L1 or mPD-L1; two independent dilution series, KD model. As to conditions: both partners purified.

T1 sequence (Q15116 25-170): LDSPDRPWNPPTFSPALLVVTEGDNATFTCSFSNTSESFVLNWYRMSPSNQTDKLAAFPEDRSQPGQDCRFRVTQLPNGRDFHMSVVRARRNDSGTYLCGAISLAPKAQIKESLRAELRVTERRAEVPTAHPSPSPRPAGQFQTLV

B1: mouse PD-L1 (ligand)
chain: FTITAPKDLYVVEYGSNVTMECRFPVERELDLLALVVYWEKEDEQVIQFVAGEEDLKPQHSNFRGRASLPKDQLLKGNAALQITDVKLQDAGVYCCIISYGGADYKRITLKVNAPY
modifications: fluorescently labeled in the MST assay with antibodies
notes: PD-L1, mouse; In the h/mICB assay mPD-L1 is endogenous on IFN-gamma-treated B16-F10/TCRAct cells; also called mPD-L1
Molecule B1 had a Kd of 3.2 ± 0.2 µM.
